{
  "source": "patent US20200261490",
  "proteins": {"B1": {"name": "murine PAPP-A (protein)", "chain": "RGAEEPSPPSRALYFSGRGEQLRLRADLELPRDAFTLQVWLRAEGGQKSPAVITGLYDKCSYTSRDRGWVMGIHTTSDQGNRDPRYFFSLKTDRARKVTTIDAHRSYLPGQWVHLAATYDGRLMKLYMNGAQVATSAEQVGGIFSPLTQKCKVLMLGGSALNHNFRGHIEHFSLWKVARTQREIVSDMETRGLHTPLPQLLLQENWDNVKRTWSPMKDGNSPQVEFSNAHGFLLDTNLEPPLCGQTLCDNTEVISSYNQLPSFRQPKVVRYRVVNIYDDHHENPTVSWQQIDFQHQQLAEAFQHYNISWELEVLNINSSSLRHRLILANCDISKIGDEKCDPECNHTLTGHDGGDCRQLRYPAFMKKQQNGVCDMDCNYERFNFDGGECCDPDITDVTKTCFDPDSPHRAYLDVNELKNILRLDGSTHLNIFFANSSEEELAGVATWPWDKEALMHLGGIVLNPSFYGIPGHTHTMIHEIGHSLGLYHIFRGISEIQSCSDPCMETEPSFETGDLCNDTNPAPKHKFCGDPGPGNDTCGFHGFFNTPYNNFMSYADDDCTDSFTPNQVSRMHCYLDLVYQSWQPSRKPAPVALAPQVVGHTMDSVMLEWFPPIDGHFFERELGSACDLCLEGRILVQYAFNASSPMPCGPSGHWSPREAEGHPDVEQPCKSSVRTWSPNSAVNPHTVPPACPEPQGCYLELEFRYPLVPESLTIWVTFVSSDWDSSGAVNDIKLLTISGKNISLGPQNVFCDIPLTIRLRDVGEEVYGIQIYTLDEHLEIDAAMLTSTVDSPLCLQCKPLQYKVLRDPPLLEDVASLLHLNRRFMDTDLKLGSVYQYRIITISGNEESEPSPAAIYTHGSGYCGDGVIQKDQGEECDDMNKVNGDGCSLFCKQEVSFNCIDEPSRCYFHDGDGMCEEFEQKTSIKDCGVYTPQGFLDQWASNASVSHQDQQCPGWVVIGQPAASQVCRTKVIDLSEGISQHAWYPCTITYPYYHLPQTTFWLQTYFSQPMVAAAVIIHLVTDGTYYGDQKQETISVQLLDTKDQSHDLGLHVLSCRNNPLIIPVVHDLSQPFYHSQAVHVSFSSPLVAISGVALRSFDNFDPVTLSSCQRGETYSPAEQSCVHFACQAADCPELAVGNASLNCSSNHHYHGAQCTVSCQTGYVLQIQRDDELIKSQVGPSITVTCTEGKWNKQVACEPVDCGIPDHHHVYAASFSCPEGTTFGRRCSFQCRHPAQLKGNNSFLTCMEDGLWSFPEALCELMCLAPPPVPNADLQTARCRENKHKVGSFCKYKCKPGYHVPGSSRKSKKRAFKTQCTQDGSWQEGTCVPVTCDPPPPKFHGLYQCTNGFQFNSECRIKCEDSDASQGRGSNIIHCRKDGTWSGSFHVCREMQGQCSAPNQLNSNLKLQCPDGYAIGSECAISCLDHNSESIILPVNLTVRDIPHWMNPTRVQRIVCTAGLQWYPHPALIHCVKGCEPFMGDNYCDAINNRAFCNYDGGDCCTSTVKTKKVTPFPMSCDLQNDCACRDPEAQEHNRKDLRGYSHG"}},
  "key": {"[1]": {"biological_target": "recombinant human stanniocalcin 2, C-terminally myc-his-tagged"}, "[2]": {"biological_target": "recombinant human stanniocalcin 1, C-terminally myc-his-tagged"}, "[3]": {"biological_target": "STC2(C120A), human stanniocalcin 2 with cysteine 120 replaced by alanine, C-terminally myc-his-tagged"}, "[4]": {"biological_target": "untagged human STC2 (transgene-derived STC2 of transgenic mice; endogenous STC2 of 293T cells)"}},
  "data": [
    {"protein": "B1", "values": [
      {"measurement": "proteolytic activity of murine PAPP-A towards radiolabeled IGFBP-4", "setting": "[1]", "value": "Murine PAPP-A and PAPP-A2 are inhibited by STC1 and STC2, but not STC2(C120A)"},
      {"measurement": "proteolytic activity of murine PAPP-A towards radiolabeled IGFBP-4", "setting": "[2]", "value": "Murine PAPP-A and PAPP-A2 are inhibited by STC1 and STC2, but not STC2(C120A)"},
      {"measurement": "proteolytic activity of murine PAPP-A towards radiolabeled IGFBP-4", "setting": "[3]", "value": "Murine PAPP-A and PAPP-A2 are inhibited by STC1 and STC2, but not STC2(C120A)"},
      {"measurement": "proteolytic activity towards IGFBP-4 in conditioned media of STC2 transgenic mouse embryonic fibroblasts", "setting": "[4]", "value": "conditioned media from MEFs derived from STC2 transgenic mice showed a marked reduction in PAPP-A activity"}
    ]}
  ]
}
